B1: PNUTS(1-148), PNUTS amino-terminal domain (PAD) (domain or fragment)
chain: MGSGPIDPKELLKGLDSFLNRDGEVKSVDGISKIFSLMKEARKMVSRCTYLNILLQTRSPEILVKFIDVGGYKLLNNWLTYSKTTNNIPLLQQILLTLQHLPLTVDHLKQNNTAKLVKQLSKSSEDEELRKLASVLVSDWMAVIRSQS

Assays:
Assay in all cases: BLI
[1] = molecular target: MYC(1-88)-V19A
[2] = molecular target: MYC(1-88)-Q20A
[3] = molecular target: MYC(1-88 Q20A)
[4] = molecular target: MYC(1-88 V19A)
[5] = molecular target: B1

Kd [5] [µM] | Binder | also measured
– | B1 | Kd [1]: 8.4 µM; Kd [2]: 5.3 µM; Kd [3]: 5.3 µM; Kd [4]: 8.4 µM
19 | biotinylated MYC(1-88 F23A) (domain or fragment, biotin on the C-terminal AVI tag) MPLNVSFTNRNYDLDYDSVQPYAYCDEEENFYQQQQQSELQPPAPSEDIWKKFELLPTPPLSPSRRSGLCSPSYVAVTPFSLRGDNDG | –
37 | biotinylated MYC(1-88 Y24A) (domain or fragment, biotin on the C-terminal AVI tag) MPLNVSFTNRNYDLDYDSVQPYFACDEEENFYQQQQQSELQPPAPSEDIWKKFELLPTPPLSPSRRSGLCSPSYVAVTPFSLRGDNDG | –
19 | biotinylated MYC(1-88 P21A) (domain or fragment, biotin on the C-terminal AVI tag) MPLNVSFTNRNYDLDYDSVQAYFYCDEEENFYQQQQQSELQPPAPSEDIWKKFELLPTPPLSPSRRSGLCSPSYVAVTPFSLRGDNDG | –
24 | biotinylated MYC(1-88 Y22A) (domain or fragment, biotin on the C-terminal AVI tag) MPLNVSFTNRNYDLDYDSVQPAFYCDEEENFYQQQQQSELQPPAPSEDIWKKFELLPTPPLSPSRRSGLCSPSYVAVTPFSLRGDNDG | –

From article doi:10.1101/2021.12.02.470928 (2021)
